From patent US20030157712A1, “Methods for determining cell responses through EphB receptors” (priority 1997, published 2003)

Key:
[1] = biological target: T1, EphB2 (Homo sapiens, UniProt P29323); test: EphB2 immunoprecipitation and phosphotyrosine immunoblot; format: cell-based; settings: HRMEC; Fc fusion proteins 500 ng ml^−1
T1 construct: EphB2 receptor immunoprecipitates (from HRMEC); endogenous in cells; host or cells: HRMEC
T1 sequence (P29323 19-1055): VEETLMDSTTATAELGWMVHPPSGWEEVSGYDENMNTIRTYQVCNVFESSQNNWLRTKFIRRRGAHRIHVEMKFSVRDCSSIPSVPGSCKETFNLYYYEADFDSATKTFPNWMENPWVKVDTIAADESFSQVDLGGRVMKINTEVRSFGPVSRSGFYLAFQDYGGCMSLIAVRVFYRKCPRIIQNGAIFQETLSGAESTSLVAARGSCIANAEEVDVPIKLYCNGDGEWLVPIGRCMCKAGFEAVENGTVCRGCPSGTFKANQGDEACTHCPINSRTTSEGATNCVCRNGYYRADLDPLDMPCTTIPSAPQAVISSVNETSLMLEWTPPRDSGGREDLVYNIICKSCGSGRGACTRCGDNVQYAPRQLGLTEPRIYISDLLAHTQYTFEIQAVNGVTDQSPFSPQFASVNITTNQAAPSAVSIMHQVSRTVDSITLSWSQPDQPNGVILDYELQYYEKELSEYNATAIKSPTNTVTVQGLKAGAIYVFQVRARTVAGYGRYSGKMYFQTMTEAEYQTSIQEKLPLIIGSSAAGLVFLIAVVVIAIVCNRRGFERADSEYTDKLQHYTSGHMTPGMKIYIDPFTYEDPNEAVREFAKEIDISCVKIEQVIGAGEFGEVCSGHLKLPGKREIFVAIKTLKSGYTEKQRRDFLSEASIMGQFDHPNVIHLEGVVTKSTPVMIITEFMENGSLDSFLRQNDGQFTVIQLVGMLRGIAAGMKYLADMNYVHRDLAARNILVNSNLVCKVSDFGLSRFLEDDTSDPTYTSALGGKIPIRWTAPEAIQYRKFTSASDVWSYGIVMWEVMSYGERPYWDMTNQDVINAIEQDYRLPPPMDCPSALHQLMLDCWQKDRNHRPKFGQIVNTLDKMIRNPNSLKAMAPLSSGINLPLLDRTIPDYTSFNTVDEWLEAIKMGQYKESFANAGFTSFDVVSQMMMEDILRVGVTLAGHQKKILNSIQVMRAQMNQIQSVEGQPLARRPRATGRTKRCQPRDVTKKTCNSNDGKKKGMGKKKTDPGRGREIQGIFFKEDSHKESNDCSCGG
Protocol: (§1) Ligand stimulation and immunoprecipitation of endogenous EphB receptors. Primary HRMEC were used at passages 3-6, as described (12). P19 cells were cultured as recommended (ATCC, Rockville, Md.). Ninety min prior to ligand stimulation, cells (2×10^5cells/60 mm dish) were plated on Matrigel-(Collaborative Biomedical Products, Becton Dickinson, Bedford, Mass., as recommended) or fibronectin-coated (29) dishes. Ligand (ephrin-B1/Fc) or control (ORF/Fc) (30) multimers were generated by preincubation with anti-Fc at a fixed ratio of 0.1× the indicated concentrations of Fc fusion proteins [50 ng ml^−1 anti-Fc for 500 ng ml^−1 Fc fusion protein]. If not otherwise indicated, Fc fusion proteins (ephrinB1/Fc or ORF/Fc) were used at 500 ng ml^−1 in the absence or presence of preclustering anti-Fc at 50 ng ml^−1. Cells were incubated with agonists at 37° C. for 10 min, or as described in the figure legends. Immunoprecipitations were conducted on either cell lysates (P19) or on Triticum vulgaris lectin affinity purified fractions of HRMEC (15) (needed to reduce the background from Matrigel). Precipitated proteins were analyzed by immunoblot (15).
EphB1 and EphB2 immunoprecipitates from HRMEC stimulated with dimeric or multimeric (+anti-Fc) ephrin-B1/Fc were analyzed for receptor activation (anti-PY), and coprecipitation of heteromeric receptors (anti-EphB1, or anti-EphB2). […]

[2] = tested on: HRMEC; test: Endothelial assembly into capillary-like structures (HRMEC); format: cell-based, human; settings: HRMEC on Matrigel, two dimensional in vitro assay, 8 h
Protocol: Endothelial assembly into capillary-like structures. Twelve well plates (Falcon) were coated with thin layers of Matrigel. HRMEC were plated at a density of 4×10^4 cells/well in DME containing 1% fetal bovine serum. Indicated agonists, control peptides, alone, or in combination with the EphB1/Fc antagonist (1000 ng ml^−1) (FIG. 5) were added at the time of plating. Cells were incubated at 37° C. for 8 h and photographed using phase microscopy (magnification 100×) (Diaphot-TMD, Nikon).

[3] = tested on: HRMEC; test: Cell adhesion assay (HRMEC); format: cell-based, human; settings: 90 min after plating
Protocol: Cell adhesion assay. Six well plates (Falcon) were coated with thin layers of Matrigel or with 0.5 μg cm^2 fibronectin (29). Growth medium was replaced 48 h before harvest with binding medium, either DMEM (HRMEC) or ∝-MEM (P19) containing 1% bovine albumin. Cells were recovered by trypsinization (HRMEC) or vigorous tituration (P19) and washed three times with binding medium and plated at 1×10^5 cells per well. Ligands were added coincident with plating at concentrations indicated above. After 90 min, unattached cells were dislodged by applying 4 brisk slaps of the plate on a horizontal surface, and the attached cell layer was carefully washed once with PBS containing calcium and magnesium to collect the remaining unattached cells. Attached cells were collected after incubation in Dispase (Collaborative Biomedical Products). Separate fractions were recovered by centrifugation, washed once and trypan blue excluding cells counted visually using a hemocytomer. The ratio of attached to total number of cells recovered were calculated for each of three wells. Data are expressed as mean+/−SEM and are representative of three independent experiments.

[4] = tested on: LMW-PTP recruitment to EphB1 and EphB2 complexes; test: LMW-PTP recruitment to EphB1 and EphB2 complexes (co-immunoprecipitation, immunoblot); format: cell-based, human
Protocol: as §1, with “Immunoprecipitations were conducted on either cell lysates (P19) or on Triticum vulgaris lectin affinity purified fractions of HRMEC (15) (needed to reduce the background from Matrigel).” left out
(§2) It was reasoned that alternative signaling responses mediated through EphB receptors might reflect differential association of additional receptor signaling complex components. […] Accordingly, EphB1 immunoprecipitates were analyzed for LMW-PTP immunoreactivity (11,17).

[5] = tested on: Grb2 and Grb10 and Nck recruitment to EphB1 complexes; test: Recruitment of SH2-containing adapter proteins to EphB1 complexes; format: cell-based
Protocol: as §1, with “Immunoprecipitations were conducted on either cell lysates (P19) or on Triticum vulgaris lectin affinity purified fractions of HRMEC (15) (needed to reduce the background from Matrigel).” left out
as §2

[6] = tested on: P19 cells; test: P19 attachment to nitrocellulose coated surfaces preadsorbed with ligand and fibronectin; format: cell-based, murine; settings: 500 ng/well ligand with fibronectin 500 ng/well on nitrocellulose, 90 min at 37° C.
Protocol: Specifically, nitrocellulose coated surfaces were preadsorbed with 500 ng/well of non-denatured ephrin-B1/Fc, either as dimer (LERK-2/Fc) or preclustered multimer (LERK2/FC+anti-Fc) or control protein (anti-Fc, BSA), with fibronectin (500 ng/well). P19 cells were plated and the % attached cells were assayed after a 90 min incubation at 37° C.

B1: ephrin-B1/Fc dimers: disulfide-linked immunoglobulin Fc fusion form of ephrin-B1 (protein)
chain: LAKNLEPVSWSSLNPKFLSGKGLVIYPKIGDKLDIICPRAEAGRPYEYYKLYLVRPEQAAACSTVLDPNVLVTCNRPEQEIRFTIKFQEFSPNYMGLEFKKHHDYYITSTSNGSLEGLENREGGVCRTRTMKIIMKVGQDPNAVTPEQLTTSRPSKEADNTVKMATQAPGSRGSLGDSDGKHETVNQEEKSGPGASGGSSGDPDGFFNSK
modifications: left off: a dimerising Fc or GST
[1]
  tyrosine phosphorylation of EphB2: stimulated
[2]
  endothelial capillary-like assembly: did not
[3]
  HRMEC attachment to Matrigel- and fibronectin-coated surfaces: did not
[4]
  recruitment of 18 kDa tyrosine phosphoprotein (LMW-PTP) to EphB1 and EphB2 immunoprecipitates: not
[5]
  recruitment of Grb2, Grb10 and Nck to EphB1 complexes, dimeric vs multimeric ligand: did not differ
[6]
  attachment of cells in preadsorbed wells: approximately 40%
